Values of other authors as cited in paper PMC2488365.

Target: penton base (Human adenovirus 2) (UniProt P03276)
UniProt P03276, sequence (P03276 whole entry): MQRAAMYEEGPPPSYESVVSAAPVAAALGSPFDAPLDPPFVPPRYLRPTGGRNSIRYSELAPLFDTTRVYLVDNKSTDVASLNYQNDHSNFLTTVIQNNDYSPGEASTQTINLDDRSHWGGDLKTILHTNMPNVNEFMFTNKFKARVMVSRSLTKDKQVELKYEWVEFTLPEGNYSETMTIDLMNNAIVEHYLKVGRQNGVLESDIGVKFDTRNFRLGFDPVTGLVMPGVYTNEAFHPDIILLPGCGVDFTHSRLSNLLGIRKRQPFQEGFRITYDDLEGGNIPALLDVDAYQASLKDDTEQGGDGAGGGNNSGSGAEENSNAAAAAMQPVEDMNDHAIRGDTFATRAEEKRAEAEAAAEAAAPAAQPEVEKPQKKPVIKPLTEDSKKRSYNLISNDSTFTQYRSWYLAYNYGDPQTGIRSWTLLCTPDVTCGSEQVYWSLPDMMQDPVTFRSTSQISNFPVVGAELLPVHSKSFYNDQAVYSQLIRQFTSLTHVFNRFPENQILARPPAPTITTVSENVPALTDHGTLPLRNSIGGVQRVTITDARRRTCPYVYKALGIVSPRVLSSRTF

Which Kd does the source give for fiber (from UniProt P03275) here?
The Kd was 200 nM.
